From article PMC10951066, “The self-reactive FVIII T cell repertoire in healthy individuals relies on a short set of epitopes and public clonotypes” (Frontiers in Immunology, 2024)

Experiments:
[1] = test system: CD4 T cells from healthy donors; assay: IFN-γ ELISPOT of CD4 T cell lines raised against rFVIII, ovalbumin or KLH (four donors); format: cell-based, human
Source text: PBMCs were purified from the whole blood of anonymous healthy donors, who gave informed consent (Etablissement Français du Sang, Rungis, France), using Ficoll-Paque®. Monocyte-derived dendritic cells (DCs) were produced from cells isolated using Percoll gradient by 5 days of culture in AIM-V medium (Invitrogen, Villebon-sur-Yvette, France) supplemented with 1,000 U/ml recombinant human (rh) IL-4 and rhGM-CSF (both from R&D Systems, Lille, France). Mature DCs were produced by two supplementary days of culture in the presence of LPS (1 µg/ml) and R848 (10µg/ml). CD4 T cells were isolated from autologous PBMCs by positive selection using magnetic labeling with anti-CD4 mAbs conjugated to magnetic microbeads followed by magnetic cell sorting, as recommended by the manufacturer (Miltenyi Biotec, Bergisch Gladbach, Germany). Immature DCs were loaded overnight at 37 °C with either 0.2 µM of rFVIII, 0.2 µM of ovalbumin, or 0.25 µM of KLH in 96-well U-bottom plates, while mature DCs were used for FVIII peptides (10 ug/ml). […] 10,000 lymphocytes were collected at day 19 from each T cell line (expanded T cells contained in one well) and their specificity was assessed by using IFN-g ELISPOT.
T cells were incubated with autologous DCs alone (control) or with DCs incubated with rFVIII (0.2 µM), ovalbumin (3 µM), and KLH (1 µM) or PBMCs for FVIII peptides (10 µg/ml) in MultiScreen 96-well plates (Merck Millipore) previously coated with 2.5 µg/mL of anti-human IFN-γ monoclonal antibody (mAb; 1-D1K; Mabtech). […] The spot number was determined by using the ELISPOT Reader System (Autoimmun Diagnostika, Ebinger, Germany). HLA restriction was assessed using monoclonal antibodies (10 μg/ml) specific to HLA-DP (B7/21), HLA-DQ (SPVL3), or HLA-DR (L243).
Firstly, we aimed to characterize the T cell response to rFVIII in vitro using chicken ovalbumin (Ova) as a non-self-protein benchmark. […] Antigen specificity was assessed using the IFN-γ ELISPOT assay. […] The average number per donor of detected clonotypes was 535 and 918, for a total of 2,143 and 3,672 clonotypes detected for FVIII and Ova. […]

[2] = test system: CD4 T cells from healthy donors; assay: CD134/CD137 activation-induced marker flow cytometry of pooled specific T cell lines; format: cell-based, human; conditions: four donors, overnight re-stimulation with antigen-loaded DCs, unstimulated control removed
Method: Positive antigen-specific T cell lines determined by using the ELISPOT assay were pooled together at day 21, after 24 h of resting in IMDM medium and with the absence of cytokine stimuli. The pooled T cell lines were re-stimulated overnight with autologous DCs alone (control) or with DCs previously loaded with either 0.2 µM of rFVIII, 0.2 µM of ovalbumin, or 0.25 µM of KLH. Following 24 h of stimulation, cells were harvested in cell staining buffer (phosphate-buffered saline/EDTA 2 mM/bovine serum albumin 0.5%) and then stained for CD4 (Vio-Blue, clone REA623, Miltenyi Biotec) and activation-induced markers CD134 (OX-40) (PE anti-human, clone Ber-ACT35, Biolegend) and CD137 (4-1BB) (APC anti-human, clone 4B4-1, Biolegend). The CD4/CD134/CD137-positive population for each condition was sorted by flow cytometry ([…] III; Becton Dickinson, San Jose, CA, USA).
Firstly, we aimed to characterize the T cell response to rFVIII in vitro using chicken ovalbumin (Ova) as a non-self-protein benchmark. Given the low frequency of FVIII-specific T cells in healthy donors, we enriched the CD4 population in vitro before analyzing their specificity and sorting them for TCR CDR3β sequencing (Figure 1A). […] Antigen specificity was assessed using the IFN-γ ELISPOT assay. […] The average number per donor of detected clonotypes was 535 and 918, for a total of 2,143 and 3,672 clonotypes detected for FVIII and Ova. […]

B1: ovalbumin: chicken ovalbumin, non-self-protein benchmark (protein, UniProt P01012 2-386, looked up)
Ovalbumin: GSIGAASMEFCFDVFKELKVHHANENIFYCPIAIMSALAMVYLGAKDSTRTQINKVVRFDKLPGFGDSIEAQCGTSVNVHSSLRDILNQITKPNDVYSFSLASRLYAEERYPILPEYLQCVKELYRGGLEPINFQTAADQARELINSWVESQTNGIIRNVLQPSSVDSQTAMVLVNAIVFKGLWEKAFKDEDTQAMPFRVTEQESKPVQMMYQIGLFRVASMASEKMKILELPFASGTMSMLVLLPDEVSGLEQLESIINFEKLTEWTSSNVMEERKIKVYLPRMKMEEKYNLTSVLMAMGITDVFSSSANLSGISSAESLKISQAVHAAHAEINEAGREVVGSAEAGVDAASVSEEFRADHPFLFCIKHIATNAVLFFGRCVSP
[1]; Donor #1180, positive/tested T cell lines
  positive T cell lines: 13/24
[1]; among 96 T cell lines tested for each antigen, four healthy donors, specific = spot count twofold over control, minimum difference 25 spots
  specific T cell lines: 58
[1]; four healthy donors, estimated with Poisson distribution
  precursor frequency of antigen-specific CD4 T cells: 5 cells/M
[2]
  mean activation percentage (CD134/CD137 double-positive of total CD4): 1.25%
